Experimental findings from patent US20190025332A1 are described below.

For test [1], the target named is wild type human MIC-1 (human) (UniProt Q99988). The experiment in a line: SPR blocking; wtMIC-1 mixed with 0.25 nM mIgG1, over immobilised mGFRAL(ECR)-Fab; RU of wtMIC-1 binding.
The target is the same in test [2]. The experiment in a line: SPR blocking; wtMIC-1 mixed with 8 nM mIgG1, over immobilised hGFRAL(ECR)-Fab; RU of wtMIC-1 binding.
Test [3] shares this target. The experiment in a line: SPR blocking; wtMIC-1 mixed with 0 nM mIgG1, over immobilised mGFRAL(ECR)-Fab; RU of wtMIC-1 binding.
The target is the same in test [4]. The experiment in a line: SPR blocking; wtMIC-1 mixed with 4 nM mIgG1, over immobilised hGFRAL(ECR)-Fab; RU of wtMIC-1 binding.
For test [5] the target is unchanged. The experiment in a line: SPR blocking; wtMIC-1 mixed with 0.125 nM mIgG1, over immobilised mGFRAL(ECR)-Fab; RU of wtMIC-1 binding.
For test [6] the target is unchanged. The experiment in a line: SPR blocking; wtMIC-1 mixed with 4 nM mIgG1, over immobilised mGFRAL(ECR)-Fab; RU of wtMIC-1 binding.
Test [7] shares this target. The experiment in a line: SPR blocking; wtMIC-1 mixed with 8 nM mIgG1, over immobilised mGFRAL(ECR)-Fab; RU of wtMIC-1 binding.
Test [8] has the same target. The experiment in a line: SPR blocking; wtMIC-1 mixed with 0.125 nM mIgG1, over immobilised hGFRAL(ECR)-Fab; RU of wtMIC-1 binding.
The target is the same in test [9]. The experiment in a line: SPR blocking; wtMIC-1 mixed with 0.5 nM mIgG1, over immobilised mGFRAL(ECR)-Fab; RU of wtMIC-1 binding.
For test [10] the target is unchanged. The experiment in a line: SPR blocking; wtMIC-1 mixed with 2 nM mIgG1, over immobilised mGFRAL(ECR)-Fab; RU of wtMIC-1 binding.
For test [11] the target is unchanged. The experiment in a line: SPR blocking; wtMIC-1 mixed with 0.5 nM mIgG1, over immobilised hGFRAL(ECR)-Fab; RU of wtMIC-1 binding.
The target is the same in test [12]. The experiment in a line: SPR blocking; wtMIC-1 mixed with 0 nM mIgG1, over immobilised hGFRAL(ECR)-Fab; RU of wtMIC-1 binding.
For test [13] the target is unchanged. The experiment in a line: SPR blocking; wtMIC-1 mixed with 1 nM mIgG1, over immobilised hGFRAL(ECR)-Fab; RU of wtMIC-1 binding.
For test [14] the target is unchanged. The experiment in a line: SPR blocking; wtMIC-1 mixed with 2 nM mIgG1, over immobilised hGFRAL(ECR)-Fab; RU of wtMIC-1 binding.
Test [15] shares this target. The experiment in a line: SPR blocking; wtMIC-1 mixed with 1 nM mIgG1, over immobilised mGFRAL(ECR)-Fab; RU of wtMIC-1 binding.
For test [16] the target is unchanged. The experiment in a line: SPR blocking; wtMIC-1 mixed with 0.25 nM mIgG1, over immobilised hGFRAL(ECR)-Fab; RU of wtMIC-1 binding.

Chain of wild type human MIC-1 (human) (Q99988 197-308 limits assumed): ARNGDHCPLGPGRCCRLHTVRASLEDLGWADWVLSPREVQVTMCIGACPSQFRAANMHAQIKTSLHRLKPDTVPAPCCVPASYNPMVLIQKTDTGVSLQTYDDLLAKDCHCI

With isotype control (mIgG1) (antibody), the Response (RU) in test [1] stood at 54.6 RU; in test [2], 59.4 RU; in test [3], 55.6 RU; in [4] it was 59.1 RU; in [5], 55.3 RU; in [6], 55.4 RU. For the same substance, the Response (RU) came out at 55.5 RU in test [7]; 58.4 RU in [8]; 55 RU in test [9]; 54.5 RU in test [10]; 58.4 RU in test [11]; 58.3 RU in test [12]. Further, the Response (RU) in [13] was 59.3 RU; in [14], 60 RU; in test [15], 54.1 RU; in test [16] it was 59.4 RU.
